# The DeepSol protein solubility set
# Assay: soluble on expression in E. coli; label from the status in PepcDB or PDB records
row,Sequence,soluble on expression in E. coli
1,MGHHHHHHSHMATSRYEPVAEIGVGAYGTVYKARDPHSGHFVALKSVRVPNGGGGGGGLPISTVREVALLRRLEAFEHPNVVRLMDVCATSRTDREIKVTLVFEHVDQDLRTYLDKAPPPGLPAETIKDLMRQFLRGLDFLHANCIVHRDLKPENILVTSGGTVKLADFGLARIYSYQMALTPVVVTLWYRAPEVLLQSTYATPVDMWSVGCIFAEMFRRKPLFCGNSEADQLGKIFDLIGLPPEDDWPRDVSLPRGAFPPRGPRPVQSVVPEMEESGAQLLLEMLTFNPHKRISAFRALQHSYLHKDEGNPE,not soluble
2,MGHHHHHHSHMAVVRATSADVDLMARLLRAEAEGEGKQGMLLVGNVGINRLRANCSDFKGLRTIRQMIYQPHAFEAVTHGYFYQRARDSERALARGSINGERRWPAKFSLWYFRPQGDCPAQWYNQPFVARFKSHCFYQPTAETCENVYNTF,not soluble
3,MGHHHHHHSHMAVWIQAQQLQGEALHQMQALYGQHFPIEVRHYLSQWIESQAWDSVDLDNPQENIKATQLLEGLVQELQKKAEHQVGEDGFLLKIKLGHYATQLQNTYDRCPMELVRCIRHILYNEQRLVREANNGSSP,not soluble
4,MGHHHHHHSHMDPDTFTFNFNNDPLVLRRRQTYLCYEVERLDNGWMVLMDQHMGFLCNEAKNLLCGFYGRHADWRFLDLVPSLQLDPAQIYRVTWFISWSPCFSWGCAGEVRAFLQENTHVRLPIFAARIYDYDPLYKEALQMLRDAGAQVSIMTYDEFEYCWDTFVYRQGCPFQPWDGLEEHSQALSGRLRAILQNQGN,not soluble
5,MGHHHHHHSHMDRWSAGTLENSILNAYLHTIRGSQHFLYIENQFFISCSDGRTVLNKVGDEIVDRILKAHKQGWCYRVYVLLPLLPGFEGDISTGGGNSIQAILHFTYRTLCRGEYSILHRLKAAMGTAWRDYISICGLRTHGE,soluble
6,MGHHHHHHSHMELKQSLSTHLEAEKPLRRYGAVEETAWKTERLGRNQLDIISMAETTMMPEEIELEMAKIQRLREVLVRRESELRFMMDDIQLCKDIMDLKQELQNLVAIPEKEKTKLQKQREDELIQKIHKLVQKRDFLVDDAEVERLREQEEDKEMADFLRIKLKPLDKVTKSPASSRAEKKAEPPPSKPTVAKTGLALIKDCCGATQCNIM,soluble
7,MGHHHHHHSHMETLSNASGTFAIRLLKILCQDNPSHNVFCSPVSISSALAMVLLGAKGNTATQMAQALSLNTEEDIHRAFQSLLTEVNKAGTQYLLRTANRLFGEKTCQFLSTFKESCLQFYHAELKELSFIRAAEESRKHINTWVSKKTEGKIEELLPGSSIDAETRLVLVNAIYFKGKWNEPFDETYTREMPFKINQEEQRPVQMMYQEATFKLAHVGEVRAQLLELPYARKELSLLVLLPDDGVELSTVEKSLTFEKLTAWTKPDCMKSTEVEVLLPKFKLQEDYDMESVLRHLGIVDAFQQGKADLSAMSAERDLCLSKFVHKSFVEVNEEGTEAAAASSCFVVAECCMESGPRFCADHPFLFFIRHNRANSILFCGRFSSP,not soluble
8,MGHHHHHHSHMGKQKKTRKYATMKRMLSLRDQRLKEKDRLKPKKKEKKDPSALKEREVPQHPSCLFFQYNTQLGPPYHILVDTNFINFSIKAKLDLVQSMMDCLYAKCIPCITDCVMAEIEKLGQKYRVALRIAKDPRFERLPCTHKGTYADDCLVQRVTQHKCYIVATVDRDLKRRIRKIPGVPIMYISNHRYNIERMPDDYGAPRF,not soluble
9,MGHHHHHHSHMGKWHVGGRRGSPRQWGATARGRDLEAVRRGGCGSVGRRRQRRRRRRRRMRRMRRMWATQGLAVRVALSVLPGSRALRPGDCEVCISYLGRFYQDLKDRDVTFSPATIENELIKFCREARGKENRLCYYIGATDDAATKIINEVSKPLAHHIPVEKICEKLKKKDSQICELKYDKQIDLSTVDLKKLRVKELKKILDDWGETCKGCAEKSDYIRKINELMPKYAPKAASAPTDL,not soluble
10,MGHHHHHHSHMIHIVQAKDKGQTARATKFLALDKCLPHRDFLQILEIEHDPSAPDYLEYDIEWLTILRATDDLINVTGRLWNMPESNGLHARWDYSATEEGMKEVLEKLNHDLKVPCNFSVTAACYDPSKPQTQMQLIHRINPQTTEFCAQLGIIDINVRLQKSKEEHHVCGEYEEQDDVESNDSGEDQSEYNTDTSALSSINPDEIMLDEEEDEDSIVSAHSGMNTPSVEPSDQASEFSASFSDVRILPGSMIVSSDDTVDSTIDREGKPGGTVESGNGEDLTKVPLKRLSDEHEPEQRKKIKRRNQAIYAAVDDDDDDAA,not soluble
11,MGHHHHHHSHMIQYIPQRPPIVMISTLVSAEKNVTETELEIPAHGLFVKDGVLHEPGLIENVAQTAAAGVGYACTLTSQPVPVGFIGAVKNLEIDYLPKVGDVLETRVEVLEEIFDMTLIKGESFVKGKRVLTCEMKIVLKK,not soluble
12,MGHHHHHHSHMISSNIREARTVILPRLMLEITSNGTLTVASHTPIFQKLSLLDLPSLTAHLKTKLSGSMFKGFLFATLCETEDHVTTLDMHPHVFEKRLVLYNPRNTCNKELCALISMVENLMDCDPKLPLSIYMRGKRLFQKNPGKDSCFLFKGLSTLISTHFAVYHPNFTVNDELLLPPLLAYKMHSTIEGIDEVSKGLLKAIYLDSYRMDNNIDDFQNPAGTFTLLCLPTIFTKHLTVPNVLILIKRAGLMYEAIDNIIL,not soluble
13,MGHHHHHHSHMKMEHQNKRSPLHAAAEAGHVDICHMLVQAGANIDTCSEDQRTPLMEAAENNHLEAVKYLIKAGALVDPKDAEGSTCLHLAAKKGHYEVVQYLLSNGQMDVNCQDDGGWTPMIWATEYKHVDLVKLLLSKGSDINIRDNEENICLHWAAFSGCVDIAEILLAAKCDLHAVNIHGDSPLHIAARENRYDCVVLFLSRDSDVTLKNKEGETPLQCASLNSQV,not soluble
14,MGHHHHHHSHMLALATSIHQSQLDRERILSLEQRVVELQQTLAQKDQALGKLEQSLRLMEEASFDGTFLWKITNVTRRCHESACGRTVSLFSPAFYTAKYGYKLCLRLYLNGDGTGKRTHLSLFIVIMRGEYDALLPWPFRNKVTFMLLDQNNREHAIDAFRPDLSSASFQRPQSETNVASGCPLFFPLSKLQSPKHAYVKDDTMFLKCIVETST,not soluble
15,MGHHHHHHSHMLENRDYTLIIDKSGSMATPDQKGGRNRWVTAQESTLALASKCEQFDPDGITLYVFSGRFKRYENVTSAKVNQIFQENDPSGTTDLAAVLKHATDDYFQRKGAGKTKPNGETILVVTDGEPDDRKAVMRVIIEASRRMDKDEELAISFIQVGSDAQATRFLKVLDDELQGAGAKFDICDTVTMEDMEDLSLSEVLLNAITD,soluble
16,MGHHHHHHSHMLWECKQLGAHSPSTLLTTLMFFNTKYFLLKTVDQHMKLAFSKVLRQTKKNPSNPKDKSTSIRYLKALGIHQTGQKVTDDMYAEQTENPENPLRCPIKLYDFYLFKCPQSVKGRNDTFYLTPEPVVAPNSPIWYSVQPISREQMGQMLTRILVIREIQEAIAVANASTMH,not soluble
17,MGHHHHHHSHMNFAGKHVGFGLTGSHCTYHEVLPQMERLVELGAKVTPFVTHTVQTTDTKFGESSEWINKIKQITEEPIVDSMVKAEPFGPKTPLDCMVIAPMTGNSTSKFANAMTDSPVLMGAKATLRNGKPVVVGISTNDALGLNGINIMRLMATKNIYFIPFGQDNPQVKPNSLVARMEALPETIEAALRGQQYQPVLIEKFRD,soluble
18,MGHHHHHHSHMNIFIMRHGEAEVMANSDKARHLTVYGSKQAFLQGQWLKQHLSTLVINSLDRILVSPYVRAQETFHQVNQAFDLELENKFEIWEGITPYGHAHSVIDYLEVLKDEGVKSVLIVSHLPLVGEIVAELYGKRNPISFYPATIAQLLWDGNKSEILMHQASPVIYLK,not soluble
19,MGHHHHHHSHMNKHQKPVLTGQRFKTRKRDEKEKFEPTVFRDTLVQGLNEAGDDLEAVAKFLDSTGSRLDYRRYADTLFDILVAGSMLAPGGTRIDDGDKTKMTNHCVFSANEDHETIRNYAQVFNKLIRRYKYLEKAFEDEMKKLLLFLKAFSETEQTKLAMLSGILLGNGTLPATILTSLFTDSLVKEGNEAPVFSPVRQQKKNKVTDS,not soluble
20,MGHHHHHHSHMPADRSIWQESCPVSFSALKKWIFLPNSTKIKEKRSSFPVRGPLTFDGWYPRDHKPSAPPTNEEERRAAAVKYGLRPEDYQSMDKDDVIKFAGDYPDLGVITYDHKDPYEAWTDRQNRRNWGELVPIDMMRYRGDRLTFTGLEAEDYTTWNSIVMCLRVLVPMALLAWYFTNEHPNALRWKNPAMPKQYSYDFYRAYPFDDPRKYPIVNYSFDLE,not soluble
21,MGHHHHHHSHMPPYPANSVFCKDKVSLCCQVGPDFLGSSAPFSASHSAGITGMSHYAQPVFCSLNKGRTVW,not soluble
22,MGHHHHHHSHMRCQESMSAVLTAEQALKLVGEMFVYHMPFNRALGLELERYEKAFAQLAFNNQPMMVGNWAQSILHGGVIASALDVAAGLVCVGSTLTRHETISEDELRQRLSRMGTIDLRVDYLRPGRGNRFTATSSLLRAGNKVAVARVELHNEDQLYIASATATYMVG,not soluble
23,MGHHHHHHSHMRKLTALFVASTLAMGAANLAHAAETTTAAPADAKPMMQHKGKFGPHHDMMFKNLNLTDAQKQQIRDIMKAQREQMKRPLLEERRAMHDIIASDTFDKAKAEAQITKMEAQRKANMLAHMETQNKIYNVLTPEQKKQYNANFEKRLTERPAQEGKMPAAAE,soluble
24,MGHHHHHHSHMRKTLIALMFATALPAIAMAAPPAPPAGAPDADAPGMHMQRGDRGPGMHRGPGPLKELDLTREQRQQIDRLMREQMHERREITQNYLEKMPAADQKAMRDEIEAKRSKTDSEVRALLKPDQQKQFDEIKKKEDERRAEWAEFKAWKAAKTAKAQ,soluble
25,MGHHHHHHSHMSERSVSKRTEQKRWYTVQAPEQFDREVLGKTPAEEPDKVLGRTIETTLGELTNDASENNTKLTFKINEVASDSAYTEFIRHELTRDYLRSLVRRGSSKVEAYITVLTTDDYRVQIQPVAVTTKKADASQEKAIRRTMIDLVRETAEDHTFEQLIDSVVEGRLSSAIYGEAKDIYPLRRVEIKKTTLEARPEEVAAEEETAVDVDEEDVDVEA,soluble
26,MGHHHHHHSHMSHIFDASVLAPHIPSNLPDNFKVRPLAKDDFSKGYVDLLSQLTSVGNLDQEAFEKRFEAMRTSVPNYHIVVIEDSNSQKVVASASLVVEMKFIHGAGSRGRVEDVVVDTEMRRQKLGAVLLKTLVSLGKSLGVYKISLECVPELLPFYSQFGFQDDCNFMTQRF,not soluble
27,MGHHHHHHSHMSVHKLTDLRDNSTNWKINVKILSIWNHPPNSHGEITTMILHDDKNNRVDATIPQGNYHNPFCPFLKPGTWIHISDFRVVVPQSRVRYSSFRFHIKFIWETSVHPLPELVKRDFFD,not soluble
28,MGHHHHHHSHMSWLKEVIGTEKAVIAMCHLRALPGDPGFDTRKGMNWVIDRAHDDLMALQNGGVDAVMFSNEFSLPYLTKVRPETTAAMARIIGQLMSEIRVPFGVNVLWDPVASFDLAMATDAKFIREIFTGAYASDFGVWDTNVGETIRHQHRIGAGHVKTLFNIVPEAAVYLGNRDVCSIAKSTVFNNNPDALCVSGLTAGARTDSAILKRVKETVPDTVVLANTGVCLENVEEQLCIADGCVTATTFKKDGVFANFVDQARVAKFMEKVRHIRQ,soluble
29,MGHHHHHHSHNTTKPKSLAVKKAKWHLGIRSQSKPYDIMAEVYRAMKQLDFEWKVVNAYHLRVRRKNPVTGNYVKMSLQLYLVDNRSYLLDFKSIDDEVVEQRSGS,not soluble
